Measured values published in the supplement of paper PMC9170038.

System: MS2 coat protein
Experiment: apparent KD of MS2 coat protein; higher = weaker reporter binding
Conditions: Eterna round: R107
How it was run: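 With or without constant ligand, designed RNA switches in 100 mM Tris-HCl pH 7.5, 80 mM KCl and 4 mM MgCl2 were titrated with SNAP-549-labelled MS2 coat protein. Concentrations went up in twofold steps from 0.7 or 1.5 nM to 3 µM. The switches had been transcribed on-chip from Illumina sequencing clusters, and apparent KD is the per-design median of normalised cluster binding-curve fits.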

[1] = input ligand: theophylline 20 uM
[2] = input ligand: theophylline 2 mM
[3] = input ligand: tryptophan 2.4 mM

| Sequence | apparent KD of MS2 coat protein (input ligand: arginine 13.2 mM) [nM] | apparent KD of MS2 coat protein (input ligand: none) [nM] | apparent KD of MS2 coat protein [1] [nM] | apparent KD of MS2 coat protein [2] [nM] | apparent KD of MS2 coat protein [3] [nM] |
| --- | --- | --- | --- | --- | --- |
| AGACAUGAGGAUCACCCAUGUAGUACGGAUACCAGAUCCAGAUGUAUCCCUUGGCAGCUGUGGUACAGCGUUGCAUCGCUCCUAG [Exclusion - Theophylline A (Freestyle 19)] | 13.1 | 16.6 | 20.6 | 20.1 | 14.4 |
| ACAUGAGGAUCACCCAUGUAAAUAACGGAAGGAGCGUGCGAAAGCACAGGUAGGUCGCCGAUAUAAAUAUUGGGUAUUAUAUUAU [#28 Exclusion - Arginine A] | 17.8 | 31.8 | 47.1 | 29.1 | 28.8 |
| UGUAUGUGAUUUGAUACCAGACCAACUGGUAAAACAUGAGGAUCACCCAUGUAAACUUGGGUCCCUUGGCAGCAAAUCGCAUACU [SSTheo B #22] | 67.8 | – | 45.6 | – | 82.7 |
| UUUAAAUAGACGGCCGCCACUGGAAUUAAUACAUGAGGAUCACCCAUGUAGAGAGAAUAAUAAUACAGGACCGGGUCUUCAUGAA [SS Tryp B Tesla 1] | 27.2 | – | 22.1 | 38.9 | – |
| UGUAACAUGAGGAUCACCCAUGUGCACGAUACCAGCUUAUUGGUAGGCCCUUGGCAGCGUAUUCGGAAGAUGUAUAAUAUAUAUC [#26 SameState-TheophyllineA] | 12.3 | – | 17.4 | – | 12.1 |
| GGGUACAUCGCGGCCGCCACUCAUGUAAAUGCAUGAGGAACACCCAUGCCGAUGGAGACAUCGGAGAGGACCGGGUGAUGUACCG | 66 | 110 | 157 | 148 | 93.7 |
| UUUUCAGGGUCGGCCGCCACUGGUAUGGCGAGUCCUCGAACAAACAUGAGGAUCACCCAUGUGAACAGGACCGGGACAGCAUGGG [Exclusion Tryptophan B GF 21] | 97.2 | 380 | 538 | 645 | 286 |
| AUAAGUAAUGUCUCGUGUAUUAUUACAGAUACCAGACUAUCCUAUGUCCCUUGGCAGCUGGAUUACAUGAGGAUCACCCAUGUUG [#10 Exclusion-TheophyllineA] | 21.5 | – | 25.3 | – | 22 |
| AGCGCAGGUCCUGAUACCAGAGACAUGAGGAUCACCCAUGUCCGGUGGUCCUGCCACAGGCUCCCUUGGCAGCAGGGCUUGUGCU [Exclusion Theophylline B GF9] | 31.4 | 28.7 | 40.8 | 60.5 | 29.1 |
| AUAUUUAACGGAAGGAGCGCGGAAUAAUAAGUGGGUAAACAUGAGGAUCACCCAUGUAAACCGCAGGUAGGUCGCCGAAUAAUAA [AstrosEXyARgB#4] | 71 | 89.4 | 115 | 86.1 | 68.4 |
| GGCUCCAGCCGAAGGAGCGCUAGAAGGUGACAUGAGGAUCACCCAUGUGUGUGAUGUGGCUAGCAGGUAGGUCGCGGAGGAGCUU [Exclusion - Arginine B (Freestyle 19)] | 62.5 | 64.5 | 108 | 90.6 | 71.1 |
| AUAAGUAUGUUUUCGUGUUUUAUUACAGAUACCAGACUAUACGUUGUCCCUUGGCAGCUGGAUUACAUGAGGAUCACCCAUGUUG [#26 Exclusion-TheophyllineA] | 19.9 | – | 32 | – | 23.1 |
| GGUCUCUGGAGCGAUACCAGCUUAAUCGUACUGGCCAGGUACAUGAGGAUCACCCAUGUAAGCCCUUGGCAGCGCUCCAGAGACC [#1 Exclusion - Theophylline B Attempt #11 (HarryS)] | 6.02 | 12.9 | 16.4 | 14.4 | 10.5 |
| UAUAUAUGGAUGGAUACCAGCAGAGAAAACGUUUAUCCUAACAUGAGGAUCACCCAUGUAUGCCCUUGGCAGCUGUUUAUAUAUA [8.J] | 21 | – | 33.9 | – | 24.3 |
| UGUAUGGACUGAAGGAGCGGGAAAAUAACCUGAGGAUCACCCAGGUAAAAGGCGAAAGCCACCCAGGUAGGUCGCAGUCCAUACU | 5.69 | 10.7 | 10.2 | 10.6 | 12.5 |
| AGCAGCUCGAAAGAGUUGCACUCAUGUGAAGGAGCGCGCGUUAGCGCAGGUAGGUCGCACAUGAGGAUCACCCAUGUACCUUCUA [MAT - Exclusion Arginine A - Mod of Eli - D15] | 87.3 | 173 | 211 | 268 | 108 |
| ACAUGAGGAUCACCCAUGUAUUACCGGGAAGGAGCGCGUGAAAACGCAGGUAGGUCGCUCGGCGUCGUGCUGUAAAGCACGACGA [#1 Same State - Arginine A Attempt #25 (HarryS)] | 13.3 | 11.5 | 16.2 | 15.6 | 13.4 |
| UUGGGUUUGUGAAGGAGCGGGAAAGUUUUAUAGUGGAUCCUAACAUGAGGAUCACCCAUGUCCCAGGUAGGUCGCGCGGGUUUGG [12.R] | 60.7 | 182 | 182 | 152 | 107 |
| AUGUUUGUGUGAGAUACCAGUGAGGCCACAUGAGGAUCACCCAUGUCCCUCACUCCGGCCCACCCUUGGCAGCUCUUAUAGUAAA [Exclusion Theophylline B GF 25] | 12 | – | 12.9 | – | 10.4 |

| Sequence | apparent KD of MS2 coat protein (input ligand: arginine 13.2 mM) [nM] | apparent KD of MS2 coat protein (input ligand: none) [nM] | apparent KD of MS2 coat protein [1] [nM] | apparent KD of MS2 coat protein [2] [nM] | apparent KD of MS2 coat protein [3] [nM] |
| --- | --- | --- | --- | --- | --- |
| CCCAAAUAGAUAUUUGGGAUUUUACUCGAAGGAGCGUCAUAGUAGGCAGGUAGGUCGCGAGACAUGAGGAUCACCCAUGUAGAGA [ss-argA-N] | 34.1 | 41.1 | 45.9 | 45.1 | 40.9 |
| ACAUGAGGAUCCGAUACCAGCCACAUGAGGAUCACCCAUGUAGUACAUGAGGAUCACCCAGGCCCUUGGCAGCGGACAUGAGGAU [Exclusion - Theophylline B] | 95.9 | – | 331 | – | 149 |
| AGCCCGGGAGCGGCCGCCACUGGAGGCUUUGCGCGACAUGAGGAUCACCCAUGUGUGCCCGGCGUUAGGACCGGGCUCGCGUGGU [#1 Same State - Tryptophan B Attempt #21 (HarryS)] | 27.8 | 33.4 | 32.5 | 55.3 | 46.9 |
| AUAAAUAAUAAAUAAAAUAAAGUGGGUGAACGAGGACCGGUACGGCCGCCACUCGGACAUGAGGAUCACCCAUGUCCAUGUGAAA [AstrosExyTry#1] | 13.1 | – | 22.4 | 19.2 | – |
| AAUUCCUAACAUGAGGAUCACCCAUGUGAAGGAGCGCGGAAUAACGCAGGUAGGUCGCACAUGGAACCGCUGCGAUAGCAGCAAA [MAT - Exclusion Arginine A - Mod of Eli - D29] | 8.66 | 14.4 | 13.3 | 14 | 12.5 |
| ACCUGUACGAAAAGUGCAGGACACGAAUAACGAGGACCGGUACGGCCGCCACUCGGAAAAUAACCUGAGGAUCACCCUGGUCGUG [TrypAS 7 #AlternativeMS2 #Zipper #StaticStem] | 29.5 | 31.6 | 37.5 | 40.1 | 33.9 |
| UAGACGGCCGGAAGGAGCGGUACAUGAGGAUCACCCAUGUAUCUCUGGGCAUCCGUAGAGUGCCAGGUAGGUCGCCGGUUGCGGG [XArg-B22] | 12.3 | 11 | 13.8 | 11.5 | 11.4 |
| ACACGUGAGGAUCAUCCAUGUGCCCAUGAAGGAGCGUGGGAAACCACAGGUAGGUCGCAUGACAUGAGGAUCACCCAUGUUUAUU [#04 Exclusion - Arginine A] | 43.1 | 86.9 | 109 | 105 | 91 |
| CUCUCAUGAACAUGAGGAUCACCCAUGUAACGAGGACCGGUACGGCCGCCACUCGAACGUGGAUACCAAUCGAGUGGGUGAGAGA [Tryp A Ex t5] | 31 | 21.5 | 25.2 | 23.8 | 80.1 |
| UCGGUGCUCUACAUGAGGAUCACCCAUGUCCGAGGACCGGUACGGCCGCCACUCGCAAUCAAACAGACGUGGGCCAACUUUGCGU [Tiribeesqu] | 11 | – | 12.1 | 11 | – |
| UACUUGCUGACGGCCGCCACUAGAACAUGAGGAUCACCCAUGUAUGGCGGCCGUCAUGGGUGGACUAGGACCGGGUCAGCAAGAU [(Trp1)-(Ms2)-(T)'-(M)'-(Trp2)_Design7] | 11.4 | – | 14.6 | 11.7 | – |
| GGGAAAGGAGAAGAUACCAGCCGCCUCACAAGUCUACACUACAUGAGGAUCACCCAUGUGGGCCCUUGGCAGCUUGACCGCGAAA [theeternabot_exclusion_MS2_Theo_B_20] | 23.2 | 27.4 | 47.7 | 42 | 39.3 |
| CGAGUAAGAACAAUCGAAUAACGGUUUUCGCGAGGACCGGUACGGCCGCCACUCGUGUGAUAUAACACAUGAGGAUCACCCAUGU [3'end-1] | 25.3 | – | 37.6 | 34.9 | – |
| CUCAUCCACGCGGCCGCCACUAUAUUGUGGUGUGAAUGUGACGUAUUACAUGAGGAUCACCCAUGUAGGACCGGGCGUGGAUGAG [#07 Exclusion Tryptophan B] | 55.8 | – | 86.2 | 93.5 | – |
| GAUGAACUAUAUGAUACCAGACAACAUGAGGAUCACCCAUGUGUAUGUCGUCCUCUGCCUGUCCCUUGGCAGCGUAUAGUUUAUC [XTheo B #17] | 36.8 | – | 70.1 | – | 16.1 |
| GGAGCUACGUCGGCCGCCACUAGCGGUAAUUACGUGUACAUGAGGAUCACCCAUGUAAUAUGGACUAGGACCGGGACGUAGCUCC [Salmon] | 10.6 | 13.3 | 21.8 | 13.7 | 12.2 |
| UCAGUGCAAGGAAGGAGCGGGUACAUGAGGAUCACCCAUGUGCAAGUGGUGAGUGUUCGUGCCCAGGUAGGUCGCCUAGCCUGGU [XArg-B19] | 36.4 | 192 | 122 | 348 | 54.5 |
| ACGCCCAGGUAGGCUUAGUGGGAUAUGGAAGGAGCGCCGAUGCAGGCAGGUAGGUCGCCAUAGAACAUGAGGAUCACCCAUGUAA [#05 Same State - Arginine A] | 31.3 | 32.8 | 37.9 | 33.1 | 27.1 |
| UCUUGAGUUUCGGAUACCAGUGUUGUCGAUACAUGAGGAUCACCCAUGUUAGAGGAUGUACACCCUUGGCAGCCGGGUGUGGCGG [tftmullin] | 12.2 | 14.5 | 14.7 | 12.6 | 15.5 |
